Biological target: T1, GST-PDZ2 of SAP97 (rat)
T1 chain: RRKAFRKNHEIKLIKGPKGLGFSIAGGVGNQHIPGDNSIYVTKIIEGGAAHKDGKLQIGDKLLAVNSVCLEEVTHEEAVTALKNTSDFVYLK
Experiment: pull-down; solubilized membranes of HEK-293 cells expressing 1.2 pmoles of FLAG ß1-AR per mg protein mixed with increasing concentrations of GST-PDZ2; GST pull-downs probed with anti-ß1-AR antibody, optical densities, estimated EC50, n = 3
Settings: one partner purified

EC50: ~1000 nM
B1: full length WT FLAG ß1-AR (receptor)
chain: not shown
notes: human ß1-adrenergic receptor, wild type; also called FLAG-tagged WT ß1-AR; WT ß1-AR; not shown: FLAG, N-terminal, kept

Source: PMC3656048, “SAP97 Controls the Trafficking and Resensitization of the Beta-1-Adrenergic Receptor through Its PDZ2 and I3 Domains” (PLoS ONE, 2013)
